What was measured:
[1] = biological target: aged human serum albumin (human) (UniProt P02768); assay: SEC
[2] = biological target: aged human serum albumin aggregates (human) (UniProt P02768); assay: SEC + ELISA
[3] = biological target: aged human serum albumin (human) (UniProt P02768); assay: SEC + ELISA

stoichiometry N (HSA molecules) [1]	fold less Aß bound than by fHSA monomers [2]	fold less Aß bound than by fHSA monomers [3]	Substance
8	–	–	aged human serum albumin (from UniProt P02768 25-609) (natural protein)
–	12 times less	4 times less	amyloid beta peptide 1-42

Reference: doi:10.1101/2022.05.03.490418
